# The supplement of paper PMC7877785
# ± gives the uncertainty stated by the source.
# Assay: self-splicing fitness, log relative to wild type (ln ratio); higher = more splicing; Tetrahymena group I intron in knt gene, E. coli kanamycin selection, DiMSum; sequences stand for … in CUCUCU…GGAGGGAAAAGUUAUCAGGCAUGCACCUGGUAGCUAGUCUUUAAACCAAUAGAUUGCAUCGGUUUAAAAGGCAAGACCGUCAAAUUGCGGGAAAGGGGUCAACAGCCGUUCAGUACCAAGUCUCAGGGGAAACUUUGAGAUGGCCUUGCAAAGGGUAUGGUAAUAAGCUGACGGACAUGGUCCUAACCACGCAGCCAAGUCCUAAGUCAACAGAUCUUCUGUUGAUAUGGAUGCAGUUCACAGACUAAAUGUCGGUCGGGGAAGAUGUAUUCUUCUCAUAAGAUAUAGUCGGACCUCUCCUUAAUGGGAGCUAGCGGAUGAAGUGAUGCAACACUGGAGCCGCUGGGAACUAAUUUGUAUGCGAAAGUAUAUUGAUUAGUUUUGGAGUACUCGUGGUCG
# How it was run: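 DiMSum derived fitness as the error-weighted combination of fold changes across replicates, kanamycin versus no kanamycin, normalised to wild type. E. coli BL21(DE3) held the library, which randomised all eight P1ex-region intron nucleotides within the knt kanamycin-resistance gene on pET-22b(+). Six replicate transformations grew overnight at 37°C or 30°C on LB agar with or without 25 μg/mL kanamycin, also containing 100 μg/mL carbenicillin, 50 μM IPTG and 0.2% rhamnose, and pooled colonies were amplicon-sequenced on an Illumina HiSeq 2500.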
Sequence,self-splicing fitness (ln) (30 °C),self-splicing fitness (ln) (37 °C)
CUGCAGCAAUAUUACGGGGG,-2.95 ± 0.18,-2.6 ± 0.21
CUGCAGCAAUAUUACGGGUC,-3.51 ± 0.23,-3.07 ± 0.31
CUGCAGCAAUAUUACGGUGC,-3.97 ± 0.24,-1.96 ± 0.23
CUGCAGCAAUAUUACGGUUC,-3.41 ± 0.1,-2.48 ± 0.13
CUGCAGCAAUAUUACGUCCU,-3.82 ± 0.37,-1.31 ± 0.31
CUGCAGCAAUAUUACGUCGG,-3.32 ± 0.18,-1.98 ± 0.2
CUGCAGCAAUAUUACGUGAU,-1.19 ± 0.072,-0.758 ± 0.12
CUGCAGCAAUAUUACGUUAC,-4.46 ± 0.28,-3.08 ± 0.24
CUGCAGCAAUAUUACGUUGU,-4.62 ± 0.25,-2.54 ± 0.2
CUGCAGCAAUAUUACGUUUU,-3.97 ± 0.19,-3.27 ± 0.21
CUGGAGCAAUAUUACGAAAG,-3.51 ± 0.4,
CUGGAGCAAUAUUACGACAG,-4.83 ± 0.31,-2.42 ± 0.49
CUGGAGCAAUAUUACGACGU,,-1.09 ± 0.2
CUGGAGCAAUAUUACGACUA,-1.37 ± 0.28,-1.38 ± 0.31
CUGGAGCAAUAUUACGACUG,0.202 ± 0.15,0.00578 ± 0.21
CUGGAGCAAUAUUACGACUU,-3.44 ± 0.38,-2.38 ± 0.39
CUGGAGCAAUAUUACGAGCG,-1.05 ± 0.094,-0.179 ± 0.11
CUGGAGCAAUAUUACGCAAU,-3.93 ± 0.33,-2.08 ± 0.29
CUGGAGCAAUAUUACGCAGA,-3.56 ± 0.37,
CUGGAGCAAUAUUACGCCAG,,-2.59 ± 0.33
CUGGAGCAAUAUUACGCCAU,,-2.32 ± 0.34

Sequence,self-splicing fitness (ln) (30 °C),self-splicing fitness (ln) (37 °C)
CUGGAGCAAUAUUACGCCCA,,-2.1 ± 0.5
CUGGAGCAAUAUUACGCGGG,-3.62 ± 0.33,-2.33 ± 0.31
CUGGAGCAAUAUUACGCUGG,,-2.98 ± 0.35
CUGGAGCAAUAUUACGGAUC,-2.82 ± 0.21,-2.87 ± 0.35
CUGGAGCAAUAUUACGGCGC,,-1.02 ± 0.41
CUGGAGCAAUAUUACGUAAU,-2.46 ± 0.29,
CUGGAGCAAUAUUACGUACU,,-2.19 ± 0.43
CUGGAGCAAUAUUACGUGGA,-1.96 ± 0.23,-2.63 ± 0.48
CUGGAGCAAUAUUACGUUGA,-1.67 ± 0.34,-2.26 ± 0.49
CUGGAGCAAUAUUACGUUUC,-3.92 ± 0.31,-2.38 ± 0.31
CUGUAGCAAUAUUACGACAU,-1.528 ± 0.014,-0.616 ± 0.033
CUGUAGCAAUAUUACGACUG,-0.156 ± 0.12,-0.0808 ± 0.17
CUGUAGCAAUAUUACGAGUU,-2.02 ± 0.3,-3.02 ± 0.37
CUGUAGCAAUAUUACGAUUC,-3.71 ± 0.23,-3.19 ± 0.4
CUGUAGCAAUAUUACGGACC,-2.03 ± 0.47,
CUGUAGCAAUAUUACGGAUC,-3.93 ± 0.3,-3.45 ± 0.39
CUGUAGCAAUAUUACGGGAC,-1.04 ± 0.18,-0.365 ± 0.21
CUGUAGCAAUAUUACGGGCA,,-2.5 ± 0.49
CUGUAGCAAUAUUACGGGUG,-0.818 ± 0.084,-1.15 ± 0.099
CUGUAGCAAUAUUACGGUUC,-3.87 ± 0.14,-3.71 ± 0.22
CUGUAGCAAUAUUACGUAAG,-0.583 ± 0.081,-0.353 ± 0.082
